According to the Immune Epitope Database (IEDB):
Values belong to the sequence of their own block, whether it stands above or below them.

How the values were obtained:
[1] = target: HLA-B*15:17; experiment: IEDB peptide-MHC binding, purified MHC/direct/fluorescence; filed as Kd, often an IC50 or EC50 that approximates it; ≥ and ≤ were set here for values at or beyond the usual limits of such assays
[2] = target: HLA-B*57:01; experiment: as above
[3] = target: HLA-B*58:01; experiment: as above
[4] = target: HLA-B*44:02; experiment: IEDB peptide-MHC binding, purified MHC/competitive/radioactivity; filed as Kd, often an IC50 or EC50 that approximates it; ≥ and ≤ were set here for values at or beyond the usual limits of such assays
[5] = target: HLA-A*02:01; experiment: as above
[6] = target: HLA-A*02:02; experiment: as above; conditions: source organism: Homo sapiens
[7] = target: HLA-A*24:02; experiment: IEDB peptide-MHC binding, purified MHC/competitive/fluorescence; ≥ and ≤ were set here for values at or beyond the usual limits of such assays
[8] = target: HLA-B*44:03; experiment: IEDB peptide-MHC binding, purified MHC/competitive/radioactivity; filed as Kd, often an IC50 or EC50 that approximates it; ≥ and ≤ were set here for values at or beyond the usual limits of such assays
[9] = target: HLA-A*02:01; experiment: IEDB peptide-MHC binding, purified MHC/competitive/fluorescence; ≥ and ≤ were set here for values at or beyond the usual limits of such assays
[10] = target: HLA-B*51:01; experiment: IEDB peptide-MHC binding, purified MHC/competitive/fluorescence; filed as Kd, often an IC50 or EC50 that approximates it; ≥ and ≤ were set here for values at or beyond the usual limits of such assays; conditions: source organism: Burkholderia ambifaria AMMD
[11] = target: HLA-B*40:01; experiment: IEDB peptide-MHC binding, purified MHC/competitive/radioactivity; filed as Kd, often an IC50 or EC50 that approximates it; ≥ and ≤ were set here for values at or beyond the usual limits of such assays
[12] = target: HLA-B*35:01; experiment: as above; conditions: source organism: Dengue virus 1 Brazil/97-11/1997
[13] = target: HLA-A*23:01; experiment: as above; conditions: source organism: Dengue virus 1 Brazil/97-11/1997
[14] = target: HLA-B*53:01; experiment: as above; conditions: source organism: Dengue virus 1 Brazil/97-11/1997
[15] = target: HLA-B*07:02; experiment: as above
[16] = target: HLA-A*24:02; experiment: as above; conditions: source organism: Dengue virus 1 Brazil/97-11/1997
[17] = target: HLA-B*51:01; experiment: as above; conditions: source organism: Dengue virus 2 16681-PDK53
[18] = target: HLA-B*15:01; experiment: IEDB peptide-MHC binding, purified MHC/competitive/fluorescence; filed as Kd, often an IC50 or EC50 that approximates it; ≥ and ≤ were set here for values at or beyond the usual limits of such assays; conditions: source organism: Yersinia pestis Nepal516
[19] = target: HLA-B*39:01; experiment: as above
[20] = target: HLA-B*48:01; experiment: IEDB peptide-MHC binding, purified MHC/direct/fluorescence; filed as Kd, often an IC50 or EC50 that approximates it; ≥ and ≤ were set here for values at or beyond the usual limits of such assays; conditions: source organism: dengue virus type 4
[21] = target: HLA-A*26:01; experiment: IEDB peptide-MHC binding, purified MHC/competitive/fluorescence; filed as Kd, often an IC50 or EC50 that approximates it; ≥ and ≤ were set here for values at or beyond the usual limits of such assays; conditions: source organism: Yersinia pestis Nepal516
[22] = source organism: Cryptosporidium parvum
[23] = source organism: Listeria monocytogenes serotype 4b str. H7858
[24] = source organism: Camelpox virus M-96
[25] = source organism: Dengue virus 4 Philippines/H241/1956
[26] = source organism: Vaccinia virus Copenhagen
[27] = source organism: Dengue virus 1 Brazil/97-11/1997
[28] = source organism: Vaccinia virus WR
[29] = source organism: Zaire ebolavirus
[30] = source organism: Vaccinia virus
[31] = source organism: West Nile virus

Sequence: KACPPGFVF
Kd [1, 22]: 0.143 µM
Kd [2, 22]: 2.48 µM
Kd [3, 22]: 0.0177 µM

Sequence: KELKCGSGIF
Kd ([4]; source organism: Dengue virus 2 Jamaica/1409/1983): 0.0336 µM

Kd ([5]; source organism: Homo sapiens): 0.0721 µM
Kd [6]: 0.0735 µM
Sequence: KLEEEQIIL

Sequence: KSAYPFDEL
Kd ([1]; source organism: Listeria monocytogenes): 0.134 µM
Kd [2, 23]: ≥ 20 µM
Kd [3, 23]: 0.046 µM

Sequence: KSVTKSSSW
Kd [1, 24]: ≤ 0.001 µM
Kd [2, 24]: 0.108 µM
Kd [3, 24]: 0.0162 µM

Sequence: LDKITDFHE
IC50 ([7]; source organism: Variola virus): 24.2 µM

Sequence: LEENMEVEIW
Kd [4, 25]: 0.225 µM
Kd [8, 25]: 0.257 µM

Sequence: LHSLSVETI
IC50 [9, 26]: ≥ 195 µM
IC50 [7, 26]: 13 µM

Kd ([5]; source organism: Homo sapiens): 0.043 µM
Sequence: LLMWITQCFL

Sequence: LPWSSPQLW
Kd [10]: 0.0906 µM

Sequence: LTLTNTSII
Kd ([5]; source organism: Lassa virus Josiah): 6.25 µM

Sequence: MEVTAKWLWG
Kd [8, 27]: 0.128 µM

Sequence: NGTLEFTPI
IC50 [9, 28]: 11.1 µM
IC50 [7, 28]: 23.1 µM

Sequence: NLEEICQLI
IC50 [9, 29]: 65.1 µM
IC50 [7, 29]: ≥ 90.8 µM

Sequence: PEVANLDII
Kd [11, 27]: 8.59 µM

Sequence: QYVDDANLE
IC50 [7, 30]: ≥ 1330 µM

Sequence: RAAGLQDCTM
Kd ([5]; source organism: Hepatitis C virus (isolate 1)): ≥ 50 µM

Sequence: REWCFTGERN
Kd [11, 25]: 0.502 µM

Sequence: RKHHTKIDS
IC50 ([7]; source organism: Variola virus): 27.2 µM

Sequence: RLGLSRPLL
Kd ([5]; source organism: Hepatitis B virus subtype ayw): ≥ 5 µM

Sequence: RNTTPMMIQ
IC50 [7, 30]: ≥ 70.4 µM

Sequence: RPMFAVGLLF
Kd [12]: 0.919 µM
Kd [13]: 0.0339 µM
Kd [14]: 0.0935 µM
Kd [15, 27]: 0.0105 µM
Kd [16]: 0.416 µM

Sequence: RQTQSRPIQ
IC50 [7, 29]: ≥ 125 µM

Sequence: RVLEMVEDW
Kd [1, 31]: 0.0432 µM
Kd [2, 31]: 0.0879 µM

Sequence: SGASTSQETW
Kd [4, 27]: 10.9 µM

Sequence: SISGVLWQV
Kd ([5]; source organism: Hepatitis C virus subtype 2b): 0.036 µM

Sequence: SPIIDKKGKV
Kd [17]: ≥ 69.6 µM
Kd ([15]; source organism: Dengue virus 2 16681-PDK53): 0.582 µM

Sequence: TEYKRVMTF
Kd [18]: 0.767 µM

Kd ([19]; source organism: Shewanella putrefaciens CN-32): 2.48 µM
Sequence: THEILWPSF

Sequence: VEITALILGA
Kd [11, 25]: 0.842 µM

Sequence: WENVPYLGK
Kd ([4]; source organism: Dengue virus 3 Martinique/1243/1999): 8.42 µM

Sequence: WRTIMAVLF
Kd [20]: ≥ 20 µM

Sequence: YNAELLVAL
Kd ([19]; source organism: Influenza A virus (A/gray teal/Australia/2/1979(H4N4))): 0.0009 µM

Sequence: YTYATRGIY
Kd [21]: 0.0062 µM
